# Laboratory results: paper PMC10193008, “Discovery of an inhibitor of DNA-driven inflammation that preferentially targets the AIM2 inflammasome”
# T1: AIM2-GST (rhAIM2) (human, UniProt O14862 1-343)
# T1 sequence: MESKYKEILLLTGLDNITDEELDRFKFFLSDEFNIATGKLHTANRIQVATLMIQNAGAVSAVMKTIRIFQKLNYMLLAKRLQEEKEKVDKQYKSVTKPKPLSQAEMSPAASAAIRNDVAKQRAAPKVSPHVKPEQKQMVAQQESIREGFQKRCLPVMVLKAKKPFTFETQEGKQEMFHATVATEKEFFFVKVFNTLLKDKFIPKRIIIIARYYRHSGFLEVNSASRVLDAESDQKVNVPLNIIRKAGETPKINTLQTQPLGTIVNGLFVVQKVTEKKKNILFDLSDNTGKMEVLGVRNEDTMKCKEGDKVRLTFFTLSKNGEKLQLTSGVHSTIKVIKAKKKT
# Biological target: T1, AIM2-GST (rhAIM2)
# Test: EMSA; no inhibitor
# Conditions: protein: commercial; tags: GST; label: none (SYBR Safe stain after electrophoresis); blunt
binder,measurement,value
VACV72 dsDNA (dsDNA) DNA 1: ATCCATCAGAAAGAGGTTTAATATTTTTGTGAGACCATCGAAGAGAGAAAGAGATAAAACTTTTTTACGACT DNA 2: AGTCGTAAAAAAGTTTTATCTCTTTCTCTCTTCGATGGTCTCACAAAAATATTAAACCTCTTTCTGATGGAT,binding result,binds
